In US20200308292A1:

Legend:
[1] = biological target: human insulin receptor extracellular domain (HIR ECD) (human) (UniProt P06213); experiment: ELISA, HIR ECD plated, biotinylated anti-human IgG detection
[2] = biological target: human insulin receptor extracellular domain (HIR ECD) (human) (UniProt P06213); experiment: ELISA, HIR ECD plated; against the HIR Ab as reference

HIR Ab-GUSB fusion protein (GUSB fused to the carboxyl terminus of the HIR Ab heavy chain) (from UniProt P08236 23-633) (antibody)
EC50 [1]: 0.81 nM

GUSB-HIR Ab fusion protein (GUSB fused to the amino terminus of the HIR Ab heavy chain) (from UniProt P08236 23-633) (antibody)
reduction in receptor binding affinity [2]: 95%
EC50 [1]: 4.8 nM
